Reference: publication PMC2659761 (Journal of molecular biology, 2008)

Experiments:
SEC = target: the molecule itself; experiment: SEC
[1] = target: T1, Cif full-length (cycle inhibiting factor) (Escherichia coli (EPEC and EHEC)), P0DUW5; experiment: SEC; settings: remark: other sources report otherwise
T1 chain: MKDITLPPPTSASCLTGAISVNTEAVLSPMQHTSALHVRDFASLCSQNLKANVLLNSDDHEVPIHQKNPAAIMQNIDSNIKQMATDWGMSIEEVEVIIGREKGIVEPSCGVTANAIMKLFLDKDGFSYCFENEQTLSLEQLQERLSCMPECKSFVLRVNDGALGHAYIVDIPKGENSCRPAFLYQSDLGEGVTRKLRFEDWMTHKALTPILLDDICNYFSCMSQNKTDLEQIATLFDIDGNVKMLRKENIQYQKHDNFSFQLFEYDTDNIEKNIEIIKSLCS

B1: Cif(100-282)-His, cycle inhibiting factor residues 100-282 with C-terminal His6 tag (the crystallized construct) (domain or fragment)
chain: REKGIVEPSCGVTANAIMKLFLDKDGFSYCFENEQTLSLEQLQERLSCMPECKSFVLRVNDGALGHAYIVDIPKGENSCRPAFLYQSDLGEGVTRKLRFEDWMTHKALTPILLDDICNYFSCMSQNKTDLEQIATLFDIDGNVKMLRKENIQYQKHDNFSFQLFEYDTDNIEKNIEIIKSLCS
- stoichiometry N (SEC): 2

B2: Cif full-length (cycle inhibiting factor), P0DUW5 1-282 (natural protein)
chain: MKDITLPPPTSASCLTGAISVNTEAVLSPMQHTSALHVRDFASLCSQNLKANVLLNSDDHEVPIHQKNPAAIMQNIDSNIKQMATDWGMSIEEVEVIIGREKGIVEPSCGVTANAIMKLFLDKDGFSYCFENEQTLSLEQLQERLSCMPECKSFVLRVNDGALGHAYIVDIPKGENSCRPAFLYQSDLGEGVTRKLRFEDWMTHKALTPILLDDICNYFSCMSQNKTDLEQIATLFDIDGNVKMLRKENIQYQKHDNFSFQLFEYDTDNIEKNIEIIKSLCS
- stoichiometry N [1]: 2
